Results as given in patent US20160297884A1 (Pfizer, published 2016).

T1: Human BCMA (human, UniProt Q02223 1-54, limits assumed)
T1 construct: also called huBCMA; B-cell maturation antigen
T1 sequence (looked up): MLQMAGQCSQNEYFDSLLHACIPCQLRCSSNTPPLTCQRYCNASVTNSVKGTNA


Columns and labels:
[1] = biological target: T2, Cynomolgus monkey BCMA (cynomolgus monkey); experiment: SPR, IgG immobilised, cyno BCMA analyte
T2 construct: Soluble analyte in SPR; also called cyBCMA; Cyno BCMA
Procedure, shortened: (§1)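 IgG amine-coupled to the chip; human or cynomolgus BCMA analyte injected by kinetic titration at 0.08–50 nM (2 min each), 2 h dissociation, in HBS-T+ with 1 mg/mL BSA, pH 7.4, at 37° C or 25° C. Double-referenced sensorgrams fit to 1:1 Langmuir with mass transport.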

[2] = biological target: T1, Human BCMA; experiment: SPR, IgG immobilised, human BCMA analyte
Procedure, shortened: as §1

| Binder | Kd [1] [nM] | koff [1] [s⁻¹] | kon [1] [M⁻¹ s⁻¹] | Kd [2] [nM] | koff [2] [s⁻¹] | kon [2] [M⁻¹ s⁻¹] |
| --- | --- | --- | --- | --- | --- | --- |
| COMBO_Rd4_0.6nM_C02 (antibody, V domains shown, IgG) VH: EVQLLESGGGLVQPGGSLRLSCAASGFTFSSYPMSWVRQAPGKGLEWVSAIGGSGGSLPYADSVKGRFTISRDNSKNTLYLQMNSLRAEDTAVYYCARYWPMDSWGQGTLVTVSS VL: EIVLTQSPGTLSLSPGERATLSCRASIAVSSTYLAWYQQKPGQAPRLLMYDASIRATGIPDRFSGSGSGTDFTLTISRLEPEDFAVYYCQQYMVWPLTFGQGTKVEIK | 0.164 | 0.000494 | 3.01e+06 | 0.022 | 0.000185 | 8.57e+06 |
| COMBO_Rd4_0.6nM_C14 (antibody, V domains shown, IgG) VH: EVQLLESGGGLVQPGGSLRLSCAASGFTFSSYPMSWVRQAPGKGLEWVSAIGGSGGSLPYADSVKGRFTISRDNSKNTLYLQMNSLRAEDTAVYYCARYWPMDIWGQGTLVTVSS VL: EIVLTQSPGTLSLSPGERATLSCRASQSVSALYLAWYQQKPGQAPRLLMYDASIRATGIPDRFSGSGSGTDFTLTISRLEPEDFAVYYCQQYYGWPLTFGQGTKVEIK | 0.185 | 0.000645 | 3.48e+06 | 0.038 | 0.000328 | 8.66e+06 |
| COMBO_Rd4_0.6nM_C05 (antibody, V domains shown, IgG) VH: EVQLLESGGGLVQPGGSLRLSCAASGFTFSSYAMNWVRQAPGKGLEWVSAIGGSGGSTYYADSVKGRFTISRDNSKNTLYLQMNSLRAEDTAVYYCARYWPMSLWGQGTLVTVSS VL: EIVLTQSPGTLSLSPGERATLSCRASQSVSSTYLAWYQQKPGQAPRLLMYDASIRATGIPDRFSGSGSGTDFTLTISRLEPEDFAVYYCQQYMSWPLTFGQGTKVEIK | 0.886 | 0.00172 | 1.94e+06 | 0.115 | 0.000497 | 4.32e+06 |
| COMBO_Rd4_0.6nM_C11 (antibody, V domains shown, IgG) VH: EVQLLESGGGLVQPGGSLRLSCAASGFTFSSYPMSWVRQAPGKGLEWVSAALGSGGSTYYADSVKGRFTISRDNSKNTLYLQMNSLRAEDTAVYYCARYWPMSLWGQGTLVTVSS VL: EIVLTQSPGTLSLSPGERATLSCRASQSVSVRYLAWYQQKPGQAPRLLMYDASIRATGIPDRFSGSGSGTDFTLTISRLEPEDFAVYYCQQYGSWPITFGQGTKVEIK | 1.92 | 0.00423 | 2.2e+06 | 0.207 | 0.00106 | 5.11e+06 |
| COMBO_Rd4_0.6nM_C17 (antibody, V domains shown, IgG) VH: EVQLLESGGGLVQPGGSLRLSCAASGFTFSSYPMSWVRQAPGKGLEWVSAIGGSGGSLPYADSVKGRFTISRDNSKNTLYLQMNSLRAEDTAVYYCARYWPMDIWGQGTLVTVSS VL: EIVLTQSPGTLSLSPGERATLSCRASQGISSTYLAWYQQKPGQAPRLLMYDASIRATGIPDRFSGSGSGTDFTLTISRLEPEDFAVYYCQQYAYWPLTFGQGTKVEIK | 0.33 | 0.00101 | 3.06e+06 | 0.092 | 0.000801 | 8.68e+06 |
| COMBO_Rd4_0.6nM_C09 (antibody, V domains shown, IgG) VH: EVQLLESGGGLVQPGGSLRLSCAASGFTFSSYPMSWVRQAPGKGLEWVSAIGGSGGSLPYADSVKGRFTISRDNSKNTLYLQMNSLRAEDTAVYYCARYWPMDIWGQGTLVTVSS VL: EIVLTQSPGTLSLSPGERATLSCRASQSVSSTYLAWYQQKPGQAPRLLMYDASIRATGIPDRFSGSGSGTDFTLTISRLEPEDFAVYYCQQYQEWPLTFGQGTKVEIK | 0.092 | 0.000346 | 3.77e+06 | 0.031 | 0.000319 | 1.04e+07 |
| COMBO_Rd4_0.6nM_C04 (antibody, V domains shown, IgG) VH: EVQLLESGGGLVQPGGSLRLSCAASGFTFSSYPMSWVRQAPGKGLEWVSAHIGSGGSTYYADSVKGRFTISRDNSKNTLYLQMNSLRAEDTAVYYCARYWPMDSWGQGTLVTVSS VL: EIVLTQSPGTLSLSPGERATLSCRASQSVSSTYLAWYQQKPGQAPRLLMYDASIRATGIPDRFSGSGSGTDFTLTISRLEPEDFAVYYCQQYQSWPLTFGQGTKVEIK | 0.039 | 0.000137 | 3.52e+06 | 0.015 | 0.000158 | 1.07e+07 |
